Columns and labels:
[1] = molecular target: Drp1-S579D (phosphomimetic mutant of human DRP1 isoform 3) (human); assay: co-sedimentation
[2] = molecular target: Drp1-S600D (phosphomimetic mutant of human DRP1 isoform 3) (human); assay: co-sedimentation

percent less Drp1 and Mff in the pellets than for Drp1-WT [1]: 50% | percent less Drp1 and Mff in the pellets than for Drp1-WT [2]: 50%
Substance: MFF-∆TM (truncated human MFF isoform 4) (from UniProt Q9GZY8-4 1-218) (domain or fragment)

Reference: article PMC10881151
